According to PMC7849420 (Virology, 2021):

T1: recombinant truncated HuCoV-NL63 nucleocapsid (N) protein AA100-377 (HuCoV-NL63, UniProt Q6Q1R8 100-377)
T1 sequence: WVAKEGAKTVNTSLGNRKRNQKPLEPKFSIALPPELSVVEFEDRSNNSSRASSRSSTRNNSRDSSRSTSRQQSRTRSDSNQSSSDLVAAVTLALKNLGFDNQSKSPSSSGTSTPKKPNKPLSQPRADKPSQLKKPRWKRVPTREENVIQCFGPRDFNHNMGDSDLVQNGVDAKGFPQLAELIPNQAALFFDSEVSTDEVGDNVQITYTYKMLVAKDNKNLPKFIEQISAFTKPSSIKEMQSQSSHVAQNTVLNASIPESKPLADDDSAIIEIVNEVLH


Legend:
Assay in all cases: ELISA
[1] = molecular target: recombinant truncated SARS-CoV nucleocapsid (N) protein AA133-422 (SARS-CoV, UniProt P59595 133-422)
[2] = molecular target: recombinant truncated SARS-CoV-2 nucleocapsid (N) protein AA133-419 (SARS-CoV-2, UniProt P0DTC9 133-419)
[3] = molecular target: recombinant truncated HuCoV-NL63 nucleocapsid (N) protein AA100-377 (HuCoV-NL63, UniProt Q6Q1R8)
[4] = molecular target: recombinant truncated SARS-CoV nucleocapsid (N) protein AA133-422 (SARS-CoV, UniProt P59595)
[5] = molecular target: recombinant truncated SARS-CoV-2 nucleocapsid (N) protein AA133-419 (SARS-CoV-2, UniProt P0DTC9)
[6] = molecular target: T1, recombinant truncated HuCoV-NL63 …

Row | Binder | Corected Average (background-corrected A450) [1] | Corected Average (background-corrected A450) [2] | Corected Average (background-corrected A450) [3] | Corected Average (background-corrected A450) [4] | Corected Average (background-corrected A450) [5] | Corected Average (background-corrected A450) [6]
1 | mBG67 mouse monoclonal antibody against SARS-CoV-2 nucleocapsid protein (antibody, V domains shown) VH: EVQLVESGGGLVQPGGSLKLSCAASGFTFSNYGMSWVRQTPDKRLELVATINRNGGSTYYLDSVKVRFTISRDNAKSTLFLQLSSLKSDDTAMYYCARIYDFDEDYFDVWGAGTTVTVSS VL: QIVLTQSPAIMSASLGERVTMTCTASSSVSSSYLHWYQQKPGSSPKLWIYSTSNLASGVPARFSGSGSGTSYSLTISSMEAEDAATYYCLQYHRSPWTFGGGTKLEIK | 0.094 absorbance at 450nm | 0.861 absorbance at 450nm |  |  |  | 
2 | mBG86 mouse monoclonal antibody against SARS-CoV-2 nucleocapsid protein (antibody, V domains shown) VH: EVQLVESGGGLVQPGGSLKLSCAASGFTFSNYGMSWVRQTPDKRLELVATINRNGGSTYYLDSVKVRFTISRDNAKSTLFLQMSSLKSEDTAMYYCARIYDYDEDYFDVWGAGTTVTVSS VL: QIVLTQSPAIMSASLGERVTMTCTASSSVSSSYLHWYQQKPGSSPKLWIYSTSNLASGVPARFSGSGSGTSYSLTISSMEAEDAATYYCLQYHRSPWTFGGGTKLEIK |  | 0.806 absorbance at 450nm |  |  |  | 
3 | mBG21 mouse monoclonal antibody against SARS-CoV-2 nucleocapsid protein (antibody, V domains shown) VH: QIQLVQSGPELKKPGETVKISCKASGYTFTDYSMHWVKQAPGKGSKWMGWINTETGEPTYADDFKGRFAFSLETSASTAYLQINNLKNEDTATYFCALRRWGQGTLVTVSA VL: IVMTQTPKFLLVSAGDRVTITCKASQSVSNDVAWFQQKPGQSPKLLIYFASNRYTGVPDRFTGSGYGTDFTFTITTVQAEDLAVYFCQQDYSSPWTFGGGTKLEIK |  |  | 0.339 absorbance at 450nm | 0.302 absorbance at 450nm | 0.743 absorbance at 450nm | 
4 | mBG22 mouse monoclonal antibody against SARS-CoV-2 nucleocapsid protein (antibody, V domains shown) VH: QIQLVQSGPELKKPGETVKISCKASGYTFTDYSMHWVKQAPGKGSKWMGWINTETGEPTYADDFKGRFAFSLETSASTAYLQINNLKNEDTATYFCALRRWGQGTLVTVSA VL: IVMTQTPKFLLVSAGDRVTITCKASQSVSNDVAWFQQKPGQSPKLLIYFASNRYTGVPDRFTGSGYGTDFTFTITTVQAEDLAVYFCQQDYSSPWTFGGGTKLEIK |  |  | 0.339 absorbance at 450nm | 0.779 absorbance at 450nm | 0.754 absorbance at 450nm | 
5 | mBG17 mouse monoclonal antibody against SARS-CoV-2 nucleocapsid protein (antibody, V domains shown) VH: EVKLEESGGGLVQPGGSMKFSCVASGFTFSDYWMNWVRQSPDKGLEWVAEIRLKSNNYATHYAASVKGRFTISRDDSKSSVYLQMNNLRAEDSGIYYCTRSAMDYWGQGTSVTVSS VL: DIVMSQSPSSLAVSVGEKITMSCKSSQSLLYTSDQKNYLAWFQQKPGQSPKLLIFWASTRDSGVPDRFTGSGSGTDFTLTISSVKAEDLAVYYCQQFYNYPRTFGGGTKLEIK | 0.872 absorbance at 450nm | 0.832 absorbance at 450nm |  |  |  | 0.365 absorbance at 450nm
